{"source": "patent US20190231821A1", "about": "(US Dept. of Health and Human Services, published 2019)", "molecular_target": "HERV-E peptide … (SEQ ID NO: 1) presented by HLA-A11 on cells (human)", "experiment": "cell-based or functional assay", "data": [{"binder": "HLA-A11 restricted HERV-E reactive T cell receptor (TCR α chain SEQ ID NO: 4, TCR β chain SEQ ID NO: 5) (TCR, V domains shown) V domain 1: GIQVEQSPPDLILQEGANSTLRCNFSDSVNNLQWFHQNPWGQLINLFYIPSGTKQNGRLSATTVATERYSLLYISSSQTTDSGVYFCAVRGGADGLTFGKGTHLIIQP V domain 2: DTEVTQTPKHLVMGMTNKKSLKCEQHMGHRAMYWYKQKAKKPPELMFVYSYEKLSINESVPSRFSPECPNSSLLNLHLHALQPEDSALYLCASSPPNEKLFFGSGTQLSVLE", "values": [{"measurement": "interferon-γ secretion by ELISA (FIG. 8)", "result": "> 2", "unit": "fold over background"}]}]}
